Our source for the Kd values is patent CN115925884A.

By Kd is commonly meant the free concentration of one partner at which half of the binding sites on the other are occupied at equilibrium, for simple one-to-one binding.

The assay concerns the target EBV gB重组蛋白 (recombinant EB virus gB protein with C-terminal 6xHis tag) (EB病毒 (Epstein-Barr virus)) (UniProt P0C762). The assay can be described thus: BLI, biotinylated gB on SA biosensor, control antibody in solution.

With “对照抗体AMMO5 (anti-EBV gB recombinant antibody, clone AMMO5)”, the Kd is 0.302 nM.
